# US10428149 (dated 2019)
# Numbering of substitutions follows the chain as printed.
# B1: dsDb3M6-scTRAIL3-FLVGGGPQRVA (antibody)
# chain: DYKDDDDKGGGGSGTEVQLLESGGGLVQPGGSLRLSCAASGFTFSHYVMAWVRQAPGKCLEWVSSISSSGGWTLYADSVKGRFTISRDNSKNTLYLQMNSLRAEDTAVYYCTRGLKMATIFDYWGQGTLVTVSSGGGGSQSALTQPASVSGSPGQSITISCTGTSSDVGSYNVVSWYQQHPGKAPKLIIYEVSQRPSGVSNRFSGSKSGNTASLTISGLQTEDEADYYCSSYAGSSIFVIFGCGTKVTVLAAAGGSGGGPQRVAAHITGTRGRSNTLSSPNSKNEKALGRKINSWESSRSGHSFLSNLHLRNGELVIHEKGFYYIYSQTYFRFQEEIKENTKNDKQMVQYIYKYTSYPDPILLMKSARNSCWSKDAEYGLYSIYQGGIFELKENDRIFVSVTNEHLIDMDHEASFFGAFLVGGGPQRVAAHITGTRGRSNTLSSPNSKNEKALGRKINSWESSRSGHSFLSNLHLRNGELVIHEKGFYYIYSQTYFRFQEEIKENTKNDKQMVQYIYKYTSYPDPILLMKSARNSCWSKDAEYGLYSIYQGGIFELKENDRIFVSVTNEHLIDMDHEASFFGAFLVGGGPQRVAAHITGTRGRSNTLSSPNSKNEKALGRKINSWESSRSGHSFLSNLHLRNGELVIHEKGFYYIYSQTYFRFQEEIKENTKNDKQMVQYIYKYTSYPDPILLMKSARNSCWSKDAEYGLYSIYQGGIFELKENDRIFVSVTNEHLIDMDHEASFFGAFLVG
# B2: Db3M6-scTRAIL3-… (HER3 arm) (antibody, V domains shown)
# VH: EVQLLESGGGLVQPGGSLRLSCAASGFTFSHYVMAWVRQAPGKGLEWVSSISSSGGWTLYADSVKGRFTISRDNSKNTLYLQMNSLRAEDTAVYYCTRGLKMATIFDYWGQGTLVTVSS
# VL: QSALTQPASVSGSPGQSITISCTGTSSDVGSYNVVSWYQQHPGKAPKLIIYEVSQRPSGVSNRFSGSKSGNTASLTISGLQTEDEADYYCSSYAGSSIFVIFGGGTKVTVL
# B3: scFv3M6-EHD2-scTRAIL3-… (HER3 arm) (antibody)
# chain: EVQLLESGGGLVQPGGSLRLSCAASGFTFSHYVMAWVRQAPGKGLEWVSSISSSGGWTLYADSVKGRFTISRDNSKNTLYLQMNSLRAEDTAVYYCTRGLKMATIFDYWGQGTLVTVSSGGGGSGGGGSGGGGSQSALTQPASVSGSPGQSITISCTGTSSDVGSYNVVSWYQQHPGKAPKLIIYEVSQRPSGVSNRFSGSKSGNTASLTISGLQTEDEADYYCSSYAGSSIFVIFGGGTKVTVLAAAGGSGGDFTPPTVKILQSSCDGGGHFPPTIQLLCLVSGYTPGTINITWLEDGQVMDVDLSTASTTQEGELASTQSELTLSQKHWLSDRTYTCQVTYQGHTFEDSTKKCADSN
# B4: EHD2-scTRAIL3-FLVGGGPQRVA (designed binder)
# chain 1: DFTPPTVKILQSSCDGGGHFPPTIQLLCLVSGYTPGTINITWLEDGQVMDVDLSTASTTQEGELASTQSELTLSQKHWLSDRTYTCQVTYQGHTFEDSTKKCADSN
# chain 2: MDWTWRVFCLLAVAPGAHSLDDYKDDDDKEFGGGPQRVAAHITGTRGRSNTLSSPNSKNEKALGRKINSWESSRSGHSFLSNLHLRNGELVIHEKGFYYIYSQTYFRFQEEIKENTKNDKQMVQYIYKYTSYPDPILLMKSARNSCWSKDAEYGLYSIYQGGIFELKENDRIFVSVTNEHLIDMDHEASFFGAFLVGGGPQRVAAHITGTRGRSNTLSSPNSKNEKALGRKINSWESSRSGHSFLSNLHLRNGELVIHEKGFYYIYSQTYFRFQEEIKENTKNDKQMVQYIYKYTSYPDPILLMKSARNSCWSKDAEYGLYSIYQGGIFELKENDRIFVSVTNEHLIDMDHEASFFGAFLVGGGPQRVAAHITGTRGRSNTLSSPNSKNEKALGRKINSWESSRSGHSFLSNLHLRNGELVIHEKGFYYIYSQTYFRFQEEIKENTKNDKQMVQYIYKYTSYPDPILLMKSARNSCWSKDAEYGLYSIYQGGIFELKENDRIFVSVTNEHLIDMDHEASFFGAFLV
# B5: scTRAIL3-FLVGGGPQRVA (designed binder)
# chain: B4 chain 2
# B6: scFv3M6-Fc-scTRAIL3-… (HER3 arm) (antibody, V domains shown)
# VH: B2 VH
# VL: B2 VL
# B7: Dbhu225-scTRAIL3-FLVGGGPQRVA (antibody)
# chain: DYKDDDDKGGGGSGTEVQLVESGGGLVQPGGSLRLSCAASGFSLTNYGVHWVRQAPGKGLEWLGVIWSGGNTDYNTPFTSRFTISRDNSKNTLYLQMNSLRAEDTAVYYCARALTYYDYEFAYWGQGTTVTVSSGGGGSDIQLTQSPSFLSASVGDRVTITCRASQSIGTNIHWYQQKPGKAPKLLIKYASESISGVPSRFSGSGSGTEFTLTISSLQPEDFATYYCQQNNNWPTTFGAGTKLEIKRAAAGGSGGGPQRVAAHITGTRGRSNTLSSPNSKNEKALGRKINSWESSRSGHSFLSNLHLRNGELVIHEKGFYYIYSQTYFRFQEEIKENTKNDKQMVQYIYKYTSYPDPILLMKSARNSCWSKDAEYGLYSIYQGGIFELKENDRIFVSVTNEHLIDMDHEASFFGAFLVGGGPQRVAAHITGTRGRSNTLSSPNSKNEKALGRKINSWESSRSGHSFLSNLHLRNGELVIHEKGFYYIYSQTYFRFQEEIKENTKNDKQMVQYIYKYTSYPDPILLMKSARNSCWSKDAEYGLYSIYQGGIFELKENDRIFVSVTNEHLIDMDHEASFFGAFLVGGGPQRVAAHITGTRGRSNTLSSPNSKNEKALGRKINSWESSRSGHSFLSNLHLRNGELVIHEKGFYYIYSQTYFRFQEEIKENTKNDKQMVQYIYKYTSYPDPILLMKSARNSCWSKDAEYGLYSIYQGGIFELKENDRIFVSVTNEHLIDMDHEASFFGAFLVG
# B8: scFvhu225-EHD2-scTRAIL3-FLVGGGPQRVA (antibody)
# chain: DYKDDDDKGGGGSGTEVQLVESGGGLVQPGGSLRLSCAASGFSLTNYGVHWVRQAPGKGLEWLGVIWSGGNTDYNTPFTSRFTISRDNSKNTLYLQMNSLRAEDTAVYYCARALTYYDYEFAYWGQGTTVTVSSGGGGSGGGGSGGGGSDIQLTQSPSFLSASVGDRVTITCRASQSIGTNIHWYQQKPGKAPKLLIKYASESISGVPSRFSGSGSGTEFTLTISSLQPEDFATYYCQQNNNWPTTFGAGTKLEIKRAAAGGSGGDFTPPTVKILQSSCDGGGHFPPTIQLLCLVSGYTPGTINITWLEDGQVMDVDLSTASTTQEGELASTQSELTLSQKHWLSDRTYTCQVTYQGHTFEDSTKKCADSNGGSGGASSGGGPQRVAAHITGTRGRSNTLSSPNSKNEKALGRKINSWESSRSGHSFLSNLHLRNGELVIHEKGFYYIYSQTYFRFQEEIKENTKNDKQMVQYIYKYTSYPDPILLMKSARNSCWSKDAEYGLYSIYQGGIFELKENDRIFVSVTNEHLIDMDHEASFFGAFLVGGGPQRVAAHITGTRGRSNTLSSPNSKNEKALGRKINSWESSRSGHSFLSNLHLRNGELVIHEKGFYYIYSQTYFRFQEEIKENTKNDKQMVQYIYKYTSYPDPILLMKSARNSCWSKDAEYGLYSIYQGGIFELKENDRIFVSVTNEHLIDMDHEASFFGAFLVGGGPQRVAAHITGTRGRSNTLSSPNSKNEKALGRKINSWESSRSGHSFLSNLHLRNGELVIHEKGFYYIYSQTYFRFQEEIKENTKNDKQMVQYIYKYTSYPDPILLMKSARNSCWSKDAEYGLYSIYQGGIFELKENDRIFVSVTNEHLIDMDHEASFFGAFLVG
# B9: dsDbhu225-scTRAIL3-FLVGGGPQRVA (antibody)
# chain: B7 chain with G59C, A239C
# B10: Db anti-FAP-Glyco-scTRAIL3-FAVSGAA (antibody)
# chain: MDWTWRVFCLLAVAPGAHSLEASDYKDDDDKGTGQVQLVQSGAEVKKPGASVKVSCKASGYTFTENIIHWVRQAPGQGLEWMGWFHPGSGSIKYNEKFKDRVTMTADTSTSTVYMELSSLRSEDTAVYYCARHGGTGRGAMDYWGQGTLVTVSSGGGGSDIQMTQSPSSLSASVGDRVTITCRASKSVSTSAYSYMHWYQQKPGKAPKLLIYLASNLESGVPSRFSGSGSGTDFTLTISSLQPEDFATYYCQHSRELPYTFGQGTKLEIKRAAAGNGTSNGTSEFGGAAAHITGTRGRSNTLSSPNSKNEKALGRKINSWESSRSGHSFLSNLHLRNGELVIHEKGFYYIYSQTYFRFQEEIKENTKNDKQMVQYIYKYTSYPDPILLMKSARNSCWSKDAEYGLYSIYQGGIFELKENDRIFVSVTNEHLIDMDHEASFFGAFAVSGAAAHITGTRGRSNTLSSPNSKNEKALGRKINSWESSRSGHSFLSNLHLRNGELVIHEKGFYYIYSQTYFRFQEEIKENTKNDKQMVQYIYKYTSYPDPILLMKSARNSCWSKDAEYGLYSIYQGGIFELKENDRIFVSVTNEHLIDMDHEASFFGAFAVSGAAAHITGTRGRSNTLSSPNSKNEKALGRKINSWESSRSGHSFLSNLHLRNGELVIHEKGFYYIYSQTYFRFQEEIKENTKNDKQMVQYIYKYTSYPDPILLMKSARNSCWSKDAEYGLYSIYQGGIFELKENDRIFVSVTNEHLIDMDHEASFFGAFAVS
# Biological target: T1, HER3 (human, UniProt P21860)
# Test: ELISA
row,Binder,EC50 [nM]
1,B1,8.54
2,B2,5.88
3,B3,11.6

# Biological target: T2, TRAIL-R2 (DR5) (human, UniProt O14763)
# Test: FACS, Colo205 cells
row,Binder,EC50 [nM]
1,B4,> 100
2,B5,5.67

# Biological target: T1, HER3
# Test: FACS, Colo205 cells
row,Binder,EC50 [nM]
1,B1,32.5
2,B6,13.1
3,B2,10.4
4,B3,19.9

# Biological target: T3, EGFR (human, UniProt P00533)
# Test: ELISA
row,Binder,EC50 [nM]
1,B7,0.77
2,B8,1.25
3,B9,0.98

# Biological target: T3, EGFR
# Test: FACS, Colo205 cells
row,Binder,EC50 [nM]
1,B7,0.87
2,B8,0.58
3,B9,0.86

# Biological target: T2, TRAIL-R2 (DR5)
# Test: ELISA
row,Binder,EC50 [nM]
1,B7,0.79
2,B1,2.83
3,B8,1.82
4,B4,1.94
5,B9,1.29
6,B5,1.74

# Biological target: FAP (human, UniProt Q12884)
# Test: FACS, HT1080 FAP+ cells
# Chain of FAP (Q12884 26-760): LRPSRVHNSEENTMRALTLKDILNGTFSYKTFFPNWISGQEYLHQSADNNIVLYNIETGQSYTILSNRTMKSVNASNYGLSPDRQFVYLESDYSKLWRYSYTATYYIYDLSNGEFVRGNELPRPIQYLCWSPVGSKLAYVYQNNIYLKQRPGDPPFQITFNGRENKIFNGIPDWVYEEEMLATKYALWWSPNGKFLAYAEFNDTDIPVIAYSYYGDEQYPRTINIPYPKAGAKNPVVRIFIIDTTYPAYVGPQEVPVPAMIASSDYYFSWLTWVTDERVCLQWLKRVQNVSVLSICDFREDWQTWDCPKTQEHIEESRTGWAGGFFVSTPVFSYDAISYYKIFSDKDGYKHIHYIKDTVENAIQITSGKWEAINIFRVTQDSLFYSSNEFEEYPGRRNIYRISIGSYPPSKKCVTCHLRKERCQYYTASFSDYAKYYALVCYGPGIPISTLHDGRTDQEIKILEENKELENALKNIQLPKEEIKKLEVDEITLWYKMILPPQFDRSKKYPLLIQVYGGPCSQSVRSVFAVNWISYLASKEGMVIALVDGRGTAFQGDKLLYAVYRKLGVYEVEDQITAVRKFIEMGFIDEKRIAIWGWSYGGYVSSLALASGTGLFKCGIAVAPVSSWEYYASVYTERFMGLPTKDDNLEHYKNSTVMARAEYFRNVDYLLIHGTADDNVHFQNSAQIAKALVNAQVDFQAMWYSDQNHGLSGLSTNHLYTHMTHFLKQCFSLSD
row,Binder,EC50 [nM]
1,B10,14
